Data on eight molecules can be found in US20260159591A1 (FIBROCOR THERAPEUTICS, published 2026).

The chains are these.
T1: human ITGA11 expressed in mouse C2C12 cells (human, UniProt Q9UKX5 23-1188)
T1 construct: whole, on cells; also called integrin α11; C2C12 cells expressing human ITGA11
T1 sequence (looked up): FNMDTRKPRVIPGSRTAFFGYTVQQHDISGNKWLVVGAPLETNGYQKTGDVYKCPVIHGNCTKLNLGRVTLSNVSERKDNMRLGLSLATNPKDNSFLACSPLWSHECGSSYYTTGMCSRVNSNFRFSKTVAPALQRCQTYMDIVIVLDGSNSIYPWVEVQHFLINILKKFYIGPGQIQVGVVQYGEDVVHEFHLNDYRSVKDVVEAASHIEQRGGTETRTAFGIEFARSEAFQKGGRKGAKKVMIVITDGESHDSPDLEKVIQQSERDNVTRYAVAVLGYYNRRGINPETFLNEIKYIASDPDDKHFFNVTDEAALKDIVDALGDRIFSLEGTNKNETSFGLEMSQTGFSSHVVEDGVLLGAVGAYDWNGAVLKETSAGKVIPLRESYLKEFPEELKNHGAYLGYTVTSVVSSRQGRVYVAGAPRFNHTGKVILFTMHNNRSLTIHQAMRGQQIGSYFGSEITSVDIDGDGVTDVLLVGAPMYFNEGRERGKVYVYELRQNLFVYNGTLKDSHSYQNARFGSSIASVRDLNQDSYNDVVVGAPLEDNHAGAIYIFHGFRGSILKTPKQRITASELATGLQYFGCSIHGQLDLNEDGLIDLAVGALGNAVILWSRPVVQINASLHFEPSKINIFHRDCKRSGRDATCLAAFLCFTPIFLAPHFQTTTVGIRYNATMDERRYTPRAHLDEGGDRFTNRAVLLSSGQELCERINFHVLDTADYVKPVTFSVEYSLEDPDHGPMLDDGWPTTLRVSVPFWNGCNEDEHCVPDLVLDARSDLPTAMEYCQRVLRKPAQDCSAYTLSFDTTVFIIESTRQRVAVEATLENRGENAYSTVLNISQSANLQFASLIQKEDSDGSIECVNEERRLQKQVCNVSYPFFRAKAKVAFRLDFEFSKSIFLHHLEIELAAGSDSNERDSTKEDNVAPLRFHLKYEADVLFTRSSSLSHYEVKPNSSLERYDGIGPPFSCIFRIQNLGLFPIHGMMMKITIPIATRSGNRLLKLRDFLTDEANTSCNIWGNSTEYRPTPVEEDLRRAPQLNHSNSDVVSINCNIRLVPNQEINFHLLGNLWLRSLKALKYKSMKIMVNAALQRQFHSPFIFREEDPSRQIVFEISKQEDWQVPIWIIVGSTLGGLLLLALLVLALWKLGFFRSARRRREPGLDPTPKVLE

T2: murine ITGA11 expressed in CHO cells (murine, UniProt P61622 23-1188)
T2 construct: whole, on cells; Only the alpha chain is named for these cells; also called mouse ITGA11; CHO cells expressing murine ITGA11
T2 sequence (looked up): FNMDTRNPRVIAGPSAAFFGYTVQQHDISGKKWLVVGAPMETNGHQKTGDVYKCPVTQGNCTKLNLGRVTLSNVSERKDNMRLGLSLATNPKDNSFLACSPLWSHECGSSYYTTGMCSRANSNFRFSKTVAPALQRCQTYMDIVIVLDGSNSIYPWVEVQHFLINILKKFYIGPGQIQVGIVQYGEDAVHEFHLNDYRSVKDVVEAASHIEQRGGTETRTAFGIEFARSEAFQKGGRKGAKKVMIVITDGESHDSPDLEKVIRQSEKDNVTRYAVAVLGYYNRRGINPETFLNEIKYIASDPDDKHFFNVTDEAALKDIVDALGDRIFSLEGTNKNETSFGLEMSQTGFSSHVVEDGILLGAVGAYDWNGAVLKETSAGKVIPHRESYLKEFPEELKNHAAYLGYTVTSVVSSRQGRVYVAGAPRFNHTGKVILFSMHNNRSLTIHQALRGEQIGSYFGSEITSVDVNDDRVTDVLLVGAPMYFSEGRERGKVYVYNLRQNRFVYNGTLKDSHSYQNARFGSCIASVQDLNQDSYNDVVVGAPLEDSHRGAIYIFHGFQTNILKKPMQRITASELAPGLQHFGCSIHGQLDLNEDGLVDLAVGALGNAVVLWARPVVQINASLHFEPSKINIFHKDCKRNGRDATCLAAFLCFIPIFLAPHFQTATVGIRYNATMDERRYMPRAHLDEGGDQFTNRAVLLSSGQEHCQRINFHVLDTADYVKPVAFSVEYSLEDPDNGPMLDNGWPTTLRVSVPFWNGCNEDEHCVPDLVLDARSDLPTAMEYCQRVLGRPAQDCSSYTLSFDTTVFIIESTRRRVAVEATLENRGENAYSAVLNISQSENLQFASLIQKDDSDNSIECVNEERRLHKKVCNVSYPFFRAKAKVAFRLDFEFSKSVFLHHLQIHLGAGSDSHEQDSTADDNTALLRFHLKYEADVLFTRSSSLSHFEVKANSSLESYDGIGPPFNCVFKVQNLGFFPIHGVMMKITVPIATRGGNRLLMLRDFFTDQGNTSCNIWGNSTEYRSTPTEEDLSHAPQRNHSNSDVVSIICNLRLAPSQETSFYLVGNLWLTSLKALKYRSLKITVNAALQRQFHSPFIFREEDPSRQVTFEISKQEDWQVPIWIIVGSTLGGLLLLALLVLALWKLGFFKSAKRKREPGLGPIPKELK

B1: mAb FIB-918-8 (antibody, V domains shown)
VH: EVQLVESGGGVVRPGGPLRLSCAASGFTFSNAWMSWVRQAPGKGLEWVSAISGSGGSTYYADSVKGRFTISRDNSKNTLYLQMNSLRAEDTAIYYCAKQTVTSADDYFDYWGQGTLVTVSS
VL: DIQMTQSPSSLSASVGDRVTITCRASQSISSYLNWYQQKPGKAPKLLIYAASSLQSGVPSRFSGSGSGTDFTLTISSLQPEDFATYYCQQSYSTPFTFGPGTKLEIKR
B2: mAb FIB-918-9 (antibody, V domains shown)
VH: EVQLVESGGGLVQPGGSLRLSCLASGFTFSDYWMAWVRQAPGKGLEWVSAISGSGGSTYYADSVKGRFTISRDNSKNTLYLQMNSLRAEDTAVYYCAKDLLWAARDAFDIWGQGTLVTVSS
VL: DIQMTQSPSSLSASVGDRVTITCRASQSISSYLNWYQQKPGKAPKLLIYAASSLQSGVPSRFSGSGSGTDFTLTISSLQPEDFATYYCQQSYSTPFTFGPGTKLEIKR
B3: mAb FIB-918-6 (antibody, V domains shown)
VH: EVQLLESGGDLVKAGGSLRLSCAASGFTFSNAWMSWVRQAPGKGLEWVSGISGSGGSTYYADSVKGRFTISRDNSKNTLYLQMNSLRAEDTAVYYCARDRGYSYSETSNDAFDIWGRGTLVTVSS
VL: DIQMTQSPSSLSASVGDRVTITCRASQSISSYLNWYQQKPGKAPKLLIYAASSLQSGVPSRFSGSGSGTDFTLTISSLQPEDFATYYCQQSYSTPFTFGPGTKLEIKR
B4: mAb FIB-918-4 (antibody, human IgG4, V domains shown)
VH: QVQLVQSGAEVKKPGATVKISCKVSGYTFTDYYMHWVRQAPGKGLEWMGGFDPEDGETIYAQKFQGRVTMTEDTSTDTAYMELSSLRSEDTAVYYCATLDYRGVVYFDYWGQGTLVTVSS
VL: NFMLTQPHSVSDSPGKTVTISCTGSSGSIASNYVQWYQQRPGSAPTTVIYEDKRRPSGVPDRFIGSIDSSSNSASLTISGLRTEDEADYYCQSYDSSNHWVFGGGTQLTVLG
B5: mAb FIB-918-3 (antibody, human IgG4, V domains shown)
VH: EVQLVESGGGLVQPGGSLRLSCAASGFTFSSYSMNWVRQAPGKGLEWVSYISSSSSTIYYADSVKGRFTISRDNAKNSLYLQMNSLRAEDTAVYYCARGPDLSDYFDYWGRGTLVTVSS
VL: not shown
B6: mAb FIB-918-2 (antibody, human IgG4, V domains shown)
VH: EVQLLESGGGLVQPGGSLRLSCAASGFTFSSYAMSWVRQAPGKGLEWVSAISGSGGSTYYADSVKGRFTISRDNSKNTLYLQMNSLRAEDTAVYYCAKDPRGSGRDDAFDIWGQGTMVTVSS
VL: NIQMTQSPSSLSASVGDRVTITCRASQTIGSYLNWYQQKPGTAPKLLIYGASTSHTWVPSRFTGGGSGTEFTLTISSLQSEDFATYYCQQSYSTPFTFGGGTKLEIKR
B7: mAb FIB-918-7 (antibody, human IgG4, V domains shown)
VH: EVQLVESGGGLVQPGGSLRLSCAASGFMFDTHAMSWVRQAPGKGLEWVSSISGSGGSIYYADSVKGRFTISRDNSKNTLYLQMNSLRAEDTAVYYCARSGETAGTDYFDYWGQGTLVTVSS
VL: EIVMTQSPATLSLSPGERATLSCRASQSVSSSYLSWYQQKPGQAPRLLIYGASTRATGIPARFSGSGSGTDFTLTISSLQPEDFAVYYCQQDYNSPYTFGQGTKVDIKR
B8: mAb FIB-918-10 (antibody, human IgG4, V domains shown)
VH: not shown
VL: AIQLTQSPSTLSASVGDRVTITCRASQGINDFLAWYQQKPGKAPKLLIYAASSLQSGVPSRFSGSGSGTDFTLTISSLQPEDFATYYCQQSYSTPLTFGGGTKVEIKR

The target of the first experiment is T1, human ITGA11 expressed in mouse C2C12 …. In words: flow cytometry, 34 nM antibody on C2C12 cells expressing human ITGA11. The procedure:
(§1) Antibody binding to C2C12 cells expressing human ITGA11 or CHO cells expressing murine ITGA11 was performed by incubating the cells with the antibodies at a concentration of 34 nM for 1 hour at 4° C. in binding medium (PBS, 10% normal goat serum, 2% rabbit serum, and 1% BSA). Cells were washed in binding medium and binding was detected using goat-anti-human Fc BV421 (Jackson ImmunoLabs). After washing the cells were resuspended in binding medium and binding was assessed by flow cytometry. 226 antibodies were screened and the binding characteristics of 10 antibodies are presented below. The results are provided in Table 2 and are expressed as mean fluorescence intensity (MFI).
Background: In flow cytometry, cells or beads pass a laser one at a time.
Take B1: the MFI amounted to 41500 MFI.

The molecule B2 came in with an MFI of 1450 MFI.

As for B3, the MFI was found to be 7880 MFI.

For B4, the MFI amounted to 15700 MFI.

As for B5, the MFI worked out at 5220 MFI.

Molecule B6 returned an MFI of 30400 MFI.

As to B7, the MFI is 7870 MFI.

Molecule B8 showed an MFI of 10600 MFI.

The target in the next experiment is T2, murine ITGA11 expressed in CHO cells. In words: flow cytometry, 34 nM antibody on CHO cells expressing murine ITGA11. The procedure: as §1
Regarding B1, the MFI was 32900 MFI.

In turn, B2 came in with an MFI of 2030 MFI.

Regarding B3, the MFI amounted to 9410 MFI.

In the case of B4, the MFI was found to be 4570 MFI.

B5 had an MFI of 1520 MFI.

B6 came in with an MFI of 12600 MFI.

B7 displayed an MFI of 21300 MFI.

Consider B8, for which the MFI stood at 8570 MFI.
